Our source for the binding result and EC50 values is patent US20210324050A1 (VANDERBILT UNIVERSITY, published 2021).

For assay [1], the target named is T1, GII.4 Houston 2002 (ABY27560.1) VLPs (human norovirus GII.4 Houston 2002, UniProt P54635 1-539).
T1 construct: also called GII.4 Houston 2002 antigen; GII.4 Houston VLPs
T1 chain: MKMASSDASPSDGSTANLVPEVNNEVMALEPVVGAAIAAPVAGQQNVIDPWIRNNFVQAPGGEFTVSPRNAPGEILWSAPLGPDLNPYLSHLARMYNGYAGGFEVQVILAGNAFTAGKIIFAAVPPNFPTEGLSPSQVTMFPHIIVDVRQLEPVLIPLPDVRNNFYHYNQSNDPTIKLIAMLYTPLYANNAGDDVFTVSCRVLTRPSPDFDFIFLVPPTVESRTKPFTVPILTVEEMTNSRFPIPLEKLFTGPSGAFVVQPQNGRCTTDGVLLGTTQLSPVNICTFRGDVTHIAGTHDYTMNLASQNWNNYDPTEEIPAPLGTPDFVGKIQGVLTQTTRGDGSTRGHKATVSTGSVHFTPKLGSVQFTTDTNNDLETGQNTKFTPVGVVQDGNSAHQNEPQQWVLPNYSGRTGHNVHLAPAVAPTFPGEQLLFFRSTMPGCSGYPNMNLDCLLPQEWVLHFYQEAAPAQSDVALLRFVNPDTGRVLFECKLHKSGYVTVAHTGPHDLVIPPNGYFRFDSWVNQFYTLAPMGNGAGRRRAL
Nature of the assay: ELISA on GII.4 Houston 2002 VLPs. Background: An ELISA detects its analyte on a solid surface through an enzyme-linked reagent.

Assay [2] addresses T2, GII.4 Sydney 2012 virus-like particles (VLPs), based on strain AFV08795.1 (human norovirus GII.4 Sydney 2012, UniProt P54635 1-538).
T2 construct: also called GII.4 VLPs
T2 chain: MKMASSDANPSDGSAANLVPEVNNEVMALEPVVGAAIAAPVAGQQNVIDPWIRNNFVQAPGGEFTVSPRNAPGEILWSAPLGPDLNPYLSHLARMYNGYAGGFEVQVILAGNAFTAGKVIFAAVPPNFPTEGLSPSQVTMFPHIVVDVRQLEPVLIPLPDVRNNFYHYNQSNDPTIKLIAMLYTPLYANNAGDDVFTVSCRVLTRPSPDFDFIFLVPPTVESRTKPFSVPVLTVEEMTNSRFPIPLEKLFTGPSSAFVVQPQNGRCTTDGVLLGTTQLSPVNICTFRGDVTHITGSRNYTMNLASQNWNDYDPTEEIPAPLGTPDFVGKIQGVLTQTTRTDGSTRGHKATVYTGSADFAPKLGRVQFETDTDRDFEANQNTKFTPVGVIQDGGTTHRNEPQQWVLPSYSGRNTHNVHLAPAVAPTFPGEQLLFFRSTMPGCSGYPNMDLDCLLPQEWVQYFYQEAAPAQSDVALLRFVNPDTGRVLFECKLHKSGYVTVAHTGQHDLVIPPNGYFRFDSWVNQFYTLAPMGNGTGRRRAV
Nature of the assay: indirect ELISA on coated GII.4 Sydney 2012 VLPs.

B1: NORO-256A (antibody, V domains shown)
VH: QVQLVESGGGVVQAGRSLRLSCAASGFTFRSYGMHWVRQAPGKGLEWVAIISYDGGSKYYADSVKGRFTISRDNSKNTLYLQMNSLRVEDTALYYCAKDFLRVYSYGWHSFDIWGLGTLVTVSS
VL: QSVLTQPPSVSAAPGQRVTISCSGSSSNIGTYYVSWYQHLPGTAPKLLIYDNDKRPSGIPDRFSASKSGTSATLDIAGLQTGDEADYYCGTWDLSLTAGWVFGGGTKLTVL
One may read the EC50 as the concentration giving half of the maximal effect. The low end stands for greater potency, the high end for weaker potency. On to B1, for which, in assay [1], the binding result is on record as “binds”. The molecule further returned a concentration for a half-maximal effect (EC50) in assay [2] of 0.9 µg/mL.

B2: NORO-303 (antibody, V domains shown)
VH: QVQLVESGGGVVQPGRSLRLSCAASGFIFSSYAMHWVRQAPGKGLEWVAVMSYDGNNKYYADSVKGRFTISRDNSKNTLFLQMNSLRPEDTAVYYCARDCRVGWVFTYGMDVWGQGTLVTVSS
VL: QSALTQPPSASGSPGQSVTISCTGTSSDVGGYNYVSWYQQHPGKAPKLMMYEISKRPSGVPIRFSGSKSGNTASLTVSGLQAEDEADYYCSSYAGTYNCVVFGGGTKLTVL
As for B2, the binding result in assay [1] is recorded as “binds”. Further, the midpoint of the response in assay [2], the EC50, lay at 0.5 µg/mL.

B3: NORO-313.1 (antibody, V domains shown)
VH: QVQLVESGGGLVKPGGSLRLSCAASGFTFSDFYMSWIRQAPGKGLEWVGYISSIAGATNYADSVKGRFTISRDSSKRSLYLQMNSLRVEDTAVYYCARMGRLELERRPHYYYPLDVWGQGTLVTVSS
VL: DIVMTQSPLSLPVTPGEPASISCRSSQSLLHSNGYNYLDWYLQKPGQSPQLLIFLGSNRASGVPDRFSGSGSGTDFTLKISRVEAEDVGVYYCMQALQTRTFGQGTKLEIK
Take B3: in assay [1], the binding result is “binds”.

B4: NORO-250B (antibody, V domains shown)
VH: QVQLVESGGGLVKPGGSLTLSCAASGFTFSDYYMNWIRQAPGKRLEWVSYISGIMSSTNYADSVKGRFTISRDTAKKSVYLQMNSLRAEDTAVYYCARATSQGATSYYFDSWGQGTLVTVSS
VL: QSVLTQPPSVSGAPGQRVTISCTGSSSNIGADYDVHWYQQLPGAAPRLLIYADINRPSGVPDRFSGSKSGTSASLAITGLQAEDEADYYCQSYDRSVSGSAVFGGGTKVTVL
For the molecule B4, in assay [1], the binding result is given as “binds”.

B5: NORO-251A (antibody, V domains shown)
VH: QVQLVESGGGVVQPGRSLRLSCAASGFTFRSYGIHWVRQAPGKGLEWVALISYDGSSKYYADSVKGRFTISRDNSKNTLYLQMNSLRSEDTAVYYCAKVRLTSYSIGWFSFDYWGQGTLVTVSS
VL: QSVLTQPPSVSAAPGQKVTISCSGSSSNIANYYVSWYQQLPGRAPKLLIYDNNKRPSGIPDRISGSKSGTSATLGITGLQTGDEADYYCGTWDTSLSAWVFGGGTKLTVL
With B5, in assay [1], the binding result is “binds”. In assay [2], the response was half-maximal at 0.9 µg/mL (EC50).

B6: NORO-296A (antibody, V domains shown)
VH: QVQLVESGGGLVKPGGSLRLSCAASGFTFSEYYMSWVRQAPGKALEWVSYITSSFSSTSYADSVKGRFVISRDNAKNSLYLQMNSLRVEDTAVYYCARYGAEYGSRSFYFLDWGQGTLVTVSS
VL: QSVLTQPPSVSGAPEQRVTISCTGSSSNIGAGYDVHWYQVLPGIAPKLLIYDNNKRPSGVPDRFSGSKSGTSASLAITGLQAEDEADYYCQSYDSRLSSNVVFGGGTKLTVL
With B6, the binding result in assay [1] was “binds”.

B7: NORO-263 (antibody, V domains shown)
VH: QVQLVESGGGLVKPGGSLRLSCAASGFTLSDYYMSWIRQAPGKGLEWVAYISSSHTSTYYRDSVKGRFTISRDSAKKSLYLQMNSLRVEDTAIYYCARDWVGGRSAYSDHWGQGTLVTVSS
VL: SYELTQPPSVSVSPGQTARITCSGDALPRRPAFWYQQKSGQAPVLVMYDDSKRPSGIPERFSGSSSGTVATLTISGAQVEDEADYHCYSTDSSGKERVFGGGTKLTVL
B7: the binding result in assay [1] was “binds”. The EC50 in assay [2] was found to be 0.6 µg/mL.

B8: NORO-315B (antibody, V domains shown)
VH: QVQLVESGGGLVKPGGSLRLSCVASGFTFSDYYMTWFRQTPGRGLEWLSYISAIGGYTEYADSVKSRFIISRDNGKKSLYLQMNSLRAEDSGVYYCAREDCHGTSCYSGDWGQGTLVTVSS
VL: QSVLTQPPSVSGAPGQRVTISCTGSSSNIGAGYDVHWYQQLPGTAPKLLIYHNTNRPSGVPDRFSGSKSGTSAYLTITGLQAEDEADYYCQSYDRSLSKSRVFSGGTKLTVL
Consider B8, for which, in assay [1], the binding result is “binds”. Further, the EC50 in assay [2] stood at 0.7 µg/mL.
